Laboratory results reported in the DeepSol protein solubility set.

Test: soluble on expression in E. coli; label from the status in PepcDB or PDB records

Sequence | soluble on expression in E. coli
MSDQMRIPCVIMRAGTSKGIFLKGNDLPADQELRDKVILRIFGSPDVRQIDGLAGADPLTSKLAIIGPSTHPDADVDYTFAQVSITDAVVDYNGNCGNISAGVGPFAIDESFVKAVEPMTRVCIHNTNTGKLLYAEVEVEDGKAKVSGDCKIDGVPGTNAPELMDFSDTAGAATGKVLPTGNVVDVLSTSKGDIDVSIVDVANPCIFVHAKDVNMTGTETPDVINGNADLLAYLEEIRAKCCVKIGMAATEKEASEKSPAFPMIAFVTKPEDYVDFSTGNTISGDDVDLVSRLMFMQVLHKTYAGTATACTGSAARIPGTIVNQVLRDTGDEDTVRIGHPAGVIPVVSIVKDGKVEKAALIRTARRIMEGYVYVEKAKLVGSAWSHPQFEK | soluble
MSDRNCYKCQQPGHISRNCPNGESDGGRRGGGGGSTCYNCQETGHFSRDCPKGGSGGGQRGGGGGGGSCYNCGGRGHYSRDCPSARSEGGSGGYGGRGGEGRSFGGQKCYNCGRSGHISRECTESGSAEEKRCYQCQETGHISRDCPSQTN | soluble
MSDSPKNAPRITDEADVVLIGAGIMSSTLGAMLRQLEPSWTQIVFERLDGPAQESSSPWNNAGTGHSALCELNYTPEVKGKVEIAKAVGINEKFQVSRQFWSHLVEEGVLSDPKEFINPVPHVSFGQGADQVAYIKARYEALKDHPLFQGMTYADDEATFTEKLPLMAKGRDFSDPVAISWIDEGTDINYGAQTKQYLDAAEVEGTEIRYGHEVKSIKADGAKWIVTVKNVHTGDTKTIKANFVFVGAGGYALDLLRSAGIPQVKGFAGFPVSGLWLRCTNEELIEQHAAKVYGKASVGAPPMSVPHLDTRVIEGEKGLLFGPYGGWTPKFLKEGSYLDLFKSIRPDNIPSYLGVAAQEFDLTKYLVTEVLKDQDKRMDALREYMPEAQNGDWETIVAGQRVQVIKPAGFPKFGSLEFGTTLINNSEGTIAGLLGASPGASIAPSAMIELLERCFGDRMIEWGDKLKDMIPSYGKKLASEPALFEQQWARTQKTLKLEEALEHHHHHH | not soluble
MSDSQEQLISSENTEVDKQAEEDRKLRRLNRRKALALERSPLPVPKLGRVLLSANSTIDLTNEDDDPSNKWFKKTFNAEKIPKLAKSPEEAKLFAVPRKISKNAPKSLLTSETLKKKLQASMSAKRRKEQEQRRKMYEEDNEHLKAGSDEEEEEDVVFKKKKGKKPVNEEEYKSEDDEDYEPENSGEEDSDEKNNGRADDEMSVNLLNDSFTYDVFNNVKRSGPGSTVSNFDSRSEADVVEKNGVVQLPTMTEITGGSNDILNLCPGSFGVSQSAGFPDTLQMLIEEDTTERKINLPQNSTSVSSDKPRLEESESEDEDDVGVKRRLPAVKNHRVLDSDEEDDVIEETLPSQDVFGSGTLEDSETIKEICEKSGEFTEKIETVLEEKTELKRVVLSDGEDSDEEAEEAEEEGDDEEEPEEDDIESENDEAETEGVEAPDPNFDDEDDELAILKRLQHQEYKQKIKKRTLFDDEASLSGDDVGSDLEDEEGMENVYEAEEGDADDVPDNDTIRRQNHKLLLKQENDKEQRELAKLQDRLLADGDLGGVETNRQFRFKLREEVQIQMGDDVDGNDGDGEDDEPEEDEQKKKERAEMIKFKYEHAEELMLLDEPKQGDDMFARAGKLFKKTEKTVIEFSEETMFKPRLSKPSLLSKTTLAVTFQEVLNGPGGAAKQMYVQSFEKPTPLSTGHISSPSSRLSTGKRLLKSPESSASAKRVRSSKLSSLE | not soluble
MSDVAIVKEGWLHKRGEYIKTWRPRYFLLKNDGTFIGYKERPQDVDQREAPLNNFSVAQCQLMKTERPRPNTFIIRCLQWTTVIERTFHVETPEEREEWTTAIQTVADGLKKQEEEEMDFRSG | soluble
MSDVKGKSTSGRGLTPKQEKFCQLYIELGNASEAYRQSYDCSKMTTEVINVKASELLNKNGKITVRVEELRQAHQQRHNLTLDNIIADLQEYRDICMGRKPLTITTVVKNAQEGTAQSVNTECFVFEPTGANKALELLGKHLGMFTNKVDVTTDGKPLPTVINVTFSDEPA | not soluble
MSDWSPMHEAAIHGHQLSLRNLISQGWAVNIITADHVSPLHEACLGGHLSCVKILLKHGAQVNGVTADWHTPLFNACVSGSWDCVNLLLQHGASVQPESDLASPIHEAARRGHVECVNSLIAYGGNIDHKISHLGTPLYLACENQQRACVKKLLESGADVNQGKGQDSPLHAVARTASEELACLLMDFGADTQAKNAEGKRPVELVPPESPLAQLFLEREGPPSLMQLCRLRIRKCFGIQQHHKITKLVLPEDLKQFLLHL | soluble
MSDYQMFEVQVSQVEPLTEQVKRFTLVATDGKPLPAFTGGSHVIVQMSDGDNQYSNAYSLLSSPHDTSCYQIAVRLEENSRGGSRFLHQQVKVGDRLTISTPNNLFALIPSARKHLFIAGGIGITPFLSHMAELQHSDVDWQLHYCSRNPESCAFRDELVQHPQAEKVHLHHSSTGTRLELARLLADIEPGTHVYTCGPEALIEAVRSEAARLDIAADTLHFEQFAIEDKTGDAFTLVLARSGKEFVVPEEMTILQVIENNKAAKVECLCREGVCGTCETAILEGEADHRDQYFSDEERASQQSMLICSRAKGKRLVLDL | soluble
MSEAQGQGKQSLVEMLKAMVQARASDIHLQAGAPPTVRIDGKLRPFGNRPLTPKEVEAIARALLTPEQLEELEYRKEMDFAYTIPGVARFRCNLLRQRGSFGLVMRVVSEVIPSFEALGLPREVMESLAAKERGLILVTGPTGSGKSTTLAALIDHINLHYAKNIITIEDPIEFLHKHKKSLVVQREVGLDTDSFYTGLKYALRQDPDVIMVGEMRDRETVEAALMAAQTGHLVLSTLHTLDAWRTINRIIDFFPLHEHRQVRVLLAESLLGILSQRLLPKADGQGRVLALEILIATPYVRELLKDEEKMPQIKEAMMEGSLYGMRTFDQHLVELYTEGLISLEDALSAATSPHEFRLLLTKATGQTY | soluble
MSEEKIYDVIIIGAGPAGMTAAVYTSRANLSTLMLERGIPGGQMANTEDVENYPGYESILGPDLSNKMFEHAKKFGAEYAYGDVKEVIDGKEYKTIIAGKKEYKARAIIVASGAEYKKIGVPGETELGGRGVSYCAVCDGAFFKGKELVVIGGGDSAVEEGVFLTRFASKVTIVHRRDTLRAQKILQDRAFQNEKVDFIWNHTIKEINEANGKVGSVTLVDVNSGEEKEVKTDGVFVYIGMLPLSKPFVELGITNENGYLETNERMETKVPGIFAAGDVREKMLRQIVTATGDGSIAAQSAQHYVEELLEELKTVSEK | not soluble
MSEETIEKFEDNVEHQNQDQPVPEGMSKKQLRRQKYKVKWEEKKLVKRAAERIRKKEKRAALKESGDLSKLRKRKDFRTMAQSNSKQRIALDMSFDDLMIEKDQKRTVQQIGWCYTANRHSPDPFQFHVVGFDGPSRKIYDGNEHNLNQDIHLHQEKLENLFKPEEIVYLTSESENVLSDLDDTKVYVIGGIVDHNSQKGLCYRIAQEKGFGHAKLPLDEHLLMKSRRVLTINQVYEILVHYSVHKNWKDALLSIIPERKNAQLKEEVVEEKPESLEEIGKLDTESTDTATGSPKIN | soluble
MSEFLNENPDILEENQLPTRKEDSTKDLLLGGFSNEATLERRSLLLKIDHSLKSQVLQDIEVLDKLLSIRIPPELTSDEDSLPAESEDESVAGGGKEEEEPDLIDAQEIYDLIAHISDPEHPLSLGQLSVVNLEDIDVHDSGNQNEMAEVVIKITPTITHCSLATLIGLGIRVRLERSLPPRFRITILLKKGTHDSENQVNKQLNDKERVAAACENEQLLGVVSKMLVTCK | soluble
MSEFWKARNWQRKFLVTGRRCFHPMELFSEIKNRYFQLMFRIINECAEGKSKSEVLKIIDEGEFGQKVIGKNQKSFSDLVLNRCAPDENLNLLIEKDGMYYPSIMNSDESGNMAGNAAKKITRPPLPVRFSQIEKAWLKALLDKEEARMILSRETFDKLQKELAGIDTPIKDEYFEFTNKIKLPEIANQKAYEENFRLLLNAIIQEKPIRYNNIDKKGNMYNDRLALPVSIEYSMRDGRFRVSMYLLDENRPVMANVFTLSDIRIVDEDVGFDRETAKRLLLEQKYSEEPIILEVTDEKAAMERCFMCFSGMERTARSLGNNKYEIKLNYYLFEEENLIRNIISLGPYVKVISPQRIVDEVVARVKKAISLYNI | not soluble
MSEISQLTPQPLWQFFDKICSIPHPSKHEEALAQYIIEWATTEGLDVRRDPTGNVFIKKPATPGMEDRKGVVLQAHIDMVPQKNEDTEHDFTKDPIQPYIDGEWVTAKGTTLGADNGMGMASCLAVLASKELKHGPLEVLLTIDEEAGMTGAFGLEAGWLEGDILLNTDSEQEGEVYMGCAGGADGAIKLDIEREALPSGYITRQITLKGLKGGHSGCDIHTGRGNANKLLGRFLAGHAQELDLRLVEFRGGSLRNAIPREAFATIAVPAENEAKLAELFTFYTNLLKDELGKVETDIVSFNETASAEQVLTKITQSRFIATLNACPNGVIRMSDDIEGVVETSLNVGVITTDENSITILCLIRSLMDSGRSMVEGMLSSVAELAGAQVTFSGTYPGWKPDADSEIMHVFRDVYEGIYGNKPNIMVIHAGLECGLFKKPYPEMDMISFGPTIKFPHSPDEKVKIDTVALYWEQMVAILENIPKKLEHHHHHH | soluble
MSEKLQKVLARAGHGSRRELEALIRAGRVSVNGKVAVLGERLEDDNAVVRIDGHVVSVKAQEEVICRVLAYYKPEGELCTRHDPEGRRTVFDRLPKIRGSRWISVGRLDANTSGLLLFTTDGELANRLMHPSRQVEREYLVRVFGDVTEEKVRNLVRGVQLEDGMARFEDVMYAGGEGINHTFYVVINEGRNREVRRLWESQGTTVSRLKRVRYGDIFLDKKLPRGGWMELDLKQVNYLRELVELRPEKETVLNMAPDAATRKRERTRSQKIRRAVRRHEERISATPGRSGKAPARRKPGGESSTRNKVANQQQSSRKPRG | not soluble
MSELNLSPDKLTVLLMGGSFGAGNIKETLDELLDTDRDFQILVITGKNESLKEKIEKKLMSRYHDKNVCVLGYTDKMNDILASIDVLVSKPGGLTTTEALLKDVPMIVPYYIPGQEEENLDFLSNCGAALRTTKKYNLSILLKVLIDDPSRLEMLKRNIKSIRKSNSAQNIANLILNIISGLEHHHHHH | not soluble
MSELSGKGCEIIVPFEERLPVRDIEKSIIKKYRKNLWSKFMKAIRDYKLVEEGDKIAVAISGGKDSILMAKMFQELKKHGQVNFDVEFIAMDPGYHANIRQLLIDNCEYLNIPIHLFDSRIFEIADEIAKDYPCYMCARMRRGALYSKAEELGCNKLALGHHYDDVIETTMLNLLCAGNFKTMLPKLNSTNFEGIKIIRPLYYIREEHIIRFIQNSGIWPLNCAC | not soluble
MSELVEMEVHGITLDPTTQMPIVVLKGKEDENLILPIWIGAFEANGIAMKLQGVEPPRPMTYELLKNIITEMGGNVEKVVINDLKDSTYYAEIYINQGNNTLVIDSRPSDAINLALRFGAPIYVAEHVLEQSKLPEPEEDEEKKKLREWLENIKPEDFEIGGEKSLEHHHHHH | soluble
MSEPADLIGEIDALGIKLQEARASITRRFIGQERVVDLTLTALLCGGHALLIGLPGLGKTRLVETLSTVMGLHGNRIQFTPDLMPADILGSEVLDTAEDGSRRFRFIPGPIFCQLLMADEINRASPRTQSALLQAMQEKTVTVAGENRPLGTPFHVLATQNPIEQEGTYPLPEAQLDRFLVQIDVDYPDRATEREILLATTGVEEAEAHQVMSQADLLGAQVLLRRMPVGESVVEMILDLVRAFRPDEPGVSDRVRDTVAWGPGPRAAQALMLTVRARALLQGRLAPSPEDVLDMARPVLSHRMALNFAARARGDTLAGLIDETAASLTRTEAAALEHHHHHH | not soluble
